Target: Flag-HsPRMT5 (UniProt O14744)
Assay: biotinylated peptide pull-down on streptavidin beads
Conditions: reference: unmodified H4 peptide; sites S1

binding against the reference: lost
Substance: histone H4 1-20 (from UniProt P62805) H4 S1ph peptide

— PMC3581573
